Reference: patent US20090143311A1 (published 2009)

Columns and labels:
[1] = target: angiotensin I converting enzyme (ACE); experiment: cell-based or functional assay
[2] = target: angiotensin I converting enzyme (ACE); experiment: cell-based or functional assay; remark: listed apart in the source

Row | Binder | IC50 value in µM, Modified Matsui assay (ACE inhibition, cleavage of Hip-His-Leu) [1] | IC50 value in µM, at-line ACE assay (ACE inhibition, cleavage of hippuryl-His-Leu) [1] | IC50 value in the Modified Matsui test (ACE inhibition) [2]
1 | ITP [tripeptide Isoleucine-Threonine-Proline (Ile-Thr-Pro)] | 10 µM | 50 µM | –
2 | IPP [tripeptide IPP] | 2 µM | 7.1 µM | –
3 | MAP [tripeptide Methionine-Alanine-Proline (Met-Ala-Pro)] | 0.4 µM | 3.8 µM | 0.5 µM
